How the values were obtained:
HSC70 [1] = target: T1, HSC70 (Homo sapiens, UniProt P11142); assay: ITC; MicroCal iTC200, 25 °C, PBS pH 7.4; peptide at 500 μM in the syringe, PD-L1 or HSC70 at 2.5 μM in the sample chamber; 20 injections of 2 μL
Target sequence in this assay (P11142 whole entry): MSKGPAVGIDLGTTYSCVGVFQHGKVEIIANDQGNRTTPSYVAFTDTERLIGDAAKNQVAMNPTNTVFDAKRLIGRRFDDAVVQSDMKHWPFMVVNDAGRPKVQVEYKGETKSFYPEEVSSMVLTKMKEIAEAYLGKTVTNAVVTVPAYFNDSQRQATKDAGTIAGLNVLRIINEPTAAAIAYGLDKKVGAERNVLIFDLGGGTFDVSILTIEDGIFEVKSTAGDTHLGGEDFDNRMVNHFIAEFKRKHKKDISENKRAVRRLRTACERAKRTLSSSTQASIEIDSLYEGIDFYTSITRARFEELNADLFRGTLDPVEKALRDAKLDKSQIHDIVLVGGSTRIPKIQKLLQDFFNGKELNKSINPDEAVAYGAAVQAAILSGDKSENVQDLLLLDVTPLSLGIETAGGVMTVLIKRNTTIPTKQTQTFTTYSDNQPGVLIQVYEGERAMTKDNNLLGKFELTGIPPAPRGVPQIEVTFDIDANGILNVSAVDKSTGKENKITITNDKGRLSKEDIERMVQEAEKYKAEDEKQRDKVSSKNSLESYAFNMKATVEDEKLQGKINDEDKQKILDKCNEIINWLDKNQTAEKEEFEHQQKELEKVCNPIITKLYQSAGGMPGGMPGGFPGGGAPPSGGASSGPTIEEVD

PD-L1 [2] = target: T2, PD-L1 (Homo sapiens, UniProt Q9NZQ7); assay: as above
Target sequence in this assay (Q9NZQ7 19-290): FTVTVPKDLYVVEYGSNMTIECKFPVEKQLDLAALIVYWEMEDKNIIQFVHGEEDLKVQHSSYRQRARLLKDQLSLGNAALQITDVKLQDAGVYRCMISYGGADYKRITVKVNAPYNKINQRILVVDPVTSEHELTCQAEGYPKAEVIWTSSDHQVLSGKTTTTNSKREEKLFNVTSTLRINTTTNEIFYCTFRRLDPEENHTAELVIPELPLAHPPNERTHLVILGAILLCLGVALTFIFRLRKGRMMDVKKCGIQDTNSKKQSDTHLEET

HSC70 [3] = target: T1, HSC70; assay: Isothermal titration calorimetry (ITC), binding to HSC70; conditions: 25 °C, PBS pH 7.4, peptide 500 μM in syringe, protein 2.5 μM in cell, 20 injections of 2 μL
Procedure: (§1) Experiments were conducted at 25 °C on a MicroCal iTC200 isothermal titration calorimeter (GE Healthcare) in PBS buffer (pH 7.4). The titration syringe was loaded with peptide a or scrambled peptide prepared at 500 μM, while the sample chamber contained PD-L1 or HSC70 protein at 2.5 μM. The titration consisted of 20 successive injections of 2 μL each, with an equilibration interval of 120 seconds between injections. The average baseline value was calculated from data points obtained under saturation conditions. Following baseline correction, binding constants were determined using the fitting models provided in MicroCal Origin software.
Target sequence in this assay (P11142 whole entry, species assumed): as the sequence (P11142 whole entry) above

PD-L1 [4] = target: T2, PD-L1; assay: Isothermal titration calorimetry (ITC), binding to PD-L1; conditions: 25 °C, PBS pH 7.4, peptide 500 μM in syringe, protein 2.5 μM in cell, 20 injections of 2 μL
Procedure: as §1
Target sequence in this assay (Q9NZQ7 19-290, species assumed): as the sequence (Q9NZQ7 19-290) above

Kd (HSC70 [1]) | Kd (PD-L1 [2]) | Kd, binding to HSC70 (HSC70 [3]) | Kd, binding to PD-L1 (PD-L1 [4]) | Substance
1280 nM | 410 nM |  |  | bifunctional peptide a (CKFERQ-PEG3-nyskptdrqyhf)
 |  | no detectable binding | no detectable binding | fhyqrdtpksyn-PEG3-QREFKC [mutant peptide with scrambled sequences]

Source: PMC12605528, “A bifunctional peptide–selenium nanocomposite for lysosomal degradation of PD-L1 and enhanced cancer immunotherapy” (Frontiers in Immunology, 2025)
